The values that follow come from patent publication US20030138450A1.

The assay addresses AMA1/E, refolded recombinant Plasmodium falciparum (3D7) AMA-1 ectodomain (amino acids 83-531) with N- and C-terminal histidine tags (Plasmodium falciparum 3D7) (UniProt P22621). The assay is described as follows: ELISA on plate-coated refolding mixtures of r-AMA1/E (GSH/GSSG 1/0.1 mM and 1/0.25 mM), against r-AMA1/E diluted in phosphate buffer with EDTA alone. A general note: ELISA stands for enzyme-linked immunosorbent assay.

In the case of rat monoclonal antibody 4G2dc1, the fold ELISA reactivity over the phosphate buffer control is 5 fold.
